The values below come from publication PMC5614552 (Biochemistry and Biophysics Reports, 2016).

This assay deals with human CD34 protein (Fc tag; Sino Biological Incorporation) (Homo sapiens, UniProt P28906). The assay is described as follows: SPR.
human CD34 protein (Fc tag; Sino Biological Incorporation), sequence (P28906 32-290): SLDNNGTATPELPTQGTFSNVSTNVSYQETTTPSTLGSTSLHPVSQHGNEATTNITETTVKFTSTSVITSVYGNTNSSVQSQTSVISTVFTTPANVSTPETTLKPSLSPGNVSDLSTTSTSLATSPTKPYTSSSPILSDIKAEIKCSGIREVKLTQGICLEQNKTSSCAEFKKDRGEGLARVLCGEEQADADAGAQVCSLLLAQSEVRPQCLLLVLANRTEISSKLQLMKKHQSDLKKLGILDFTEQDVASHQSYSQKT

B1: Chimeric QBEND/10 (antibody, V domains shown)
VH: QVQLEQSGPELVKPGASVKMSCKASGYTFTSYVIHWVKQKPGQGLEWLGYTNPYNDVTKYNEKFKFKATLTSDKQSTTAYMEFSSLTSEDSAVYYCARYGGLWLYAMDYWGQGTSVTVSS
VL: QLVLTQSSSASFSLGASAKLTCTLSSQHRTFTIEWYQQQPLKPPKYVMELRKDGSHSTGDGIPDRFSGSSSGADRYLSISNIQPEDEAIYICGVGNTIKEQFVYVFGGGTKVTVL
For orientation: Kd means a measure of binding affinity in units of concentration. Higher therefore signals weaker binding. For orientation: koff means the first-order rate constant of dissociation. In general, kon refers to a measure of how fast the partners come together. In the case of B1, the affinity, expressed as Kd, was 14.7 nM; the koff is 0.000262 s⁻¹; the kon came to 17800 M⁻¹ s⁻¹.
